# Conditions: Capra hircus; pH 7; 25 °C; GdnHCl; CD; sodium cacodylate 50 mM; NaCl 50 mM; reversible: yes; whole UniProt chain shown
protein,measurement,value
"Alpha-lactalbumin wild type, P00712 (protein) MMSFVSLLLVGILFHATQAEQLTKCEVFQKLKDLKDYGGVSLPEWVCTAFHTSGYDTQAIVQNNDSTEYGLFQINNKIWCKDDQNPHSRNICNISCDKFLDDDLTDDIVCAKKILDKVGINYWLAHKALCSEKLDQWLCEKL",denaturant m value,2.2 kcal/mol/M
same,denaturant midpoint (higher = more stable),2.6 M
same,unfolding free energy,5.7 kcal/mol
